The assay deals with GST-(PreScission site)-CYK-4 aa 146–190, phosphorylated by PLK-1 (C. elegans). Put plainly: pull-down.

In turn, “ECT-2 aa 1–320 (ECT-2 BRCT module) (domain or fragment)” yielded a fold increase in binding against the unphosphorylated WT CYK-4 fragment of 4 fold.

For the origin of these results see paper PMC7438317.
